Results reported in the Human Domainome abundance scans (Beltran et al. 2025).

B1: Double-stranded RNA-binding protein Staufen homolog 1, residues 183 to 249; numbered along this chain, O95793 (parent)
chain: KSEISQVFEIALKRNLPVNFEVARESGPPHMKNFVTKVSVGEFVGEGEGKSKKISKKNAAIAVLEEL
B2: DnaJ homolog subfamily C member 5, residues 16 to 77; numbered along this chain, Q9H3Z4 (parent)
chain: LYHVLGLDKNATSDDIKKSYRKLALKYHPDKNPDNPEAADKFKEINNAHAILTDATKRNIYD

Variants of: B1
Test: abundance fitness (aPCA) (normalised: wild type 0, dead -1); higher = more abundant; growth selection in yeast, the domain comes from the species named
Conditions: Homo sapiens

Abundance fitness of substitutions, site by site:
I61: D -0.53; N -0.181; L -0.061; G -0.184; V -0.104; S -0.045; H -0.218; K -0.047; F -0.39; E -0.245; Q -0.14; M -0.095; C -0.126; R 0.002; T -0.292; W -0.624; P -0.556; Y -0.478; A 0.002
A59: R -0.843; P -1.08; V -1.03; F -0.911; W -0.937; N -0.705; C -0.663; S -0.608; K -0.717; H -1.04; D -0.718; T -0.869; M -0.753; G -0.61; Q -0.785; Y -1.16; I -1.03; L -0.806; E -0.798
K57: F -0.837; T 0.17; V -0.218; L -0.163; S -0.43
L67: I -0.114; D -0.706; T -0.6; F -0.355; G -0.438; A -0.509; K -0.53; N -0.584; R -0.751; S -0.603; C -0.693; V -0.439; Q -0.423; W -0.465; M 0; Y -0.873; P -0.526; H -0.299; E -0.743
V63: A -0.246; W -0.818; D -0.497; L -0.143; H -0.858; P -0.577; F -0.829; R -0.73; N -0.521; Y -0.906; S -0.693; M -0.239; G -0.482; Q -0.597; T -0.615; C -0.233
N58: R -0.105; V -0.565; M -0.055; T -0.604; S -0.341; A -0.171; C -0.451; W -0.868; I -0.614; G -0.655; F -0.434; P -0.763; E -0.238; L -0.195; Q -0.126; H -0.284; K -0.149; Y -0.4
A60: M -0.363; Y -0.431; Q -0.741; T -0.466; V -0.489; I -0.452; D -0.649; W -1.02; P -0.701; H -0.803; N -0.739; F -0.068; L -0.414; E -0.575; K -0.714; C -0.067; G -0.685; R -0.882
E66: K 0.216; V 0.077; H -0.002; Q 0.138; G -0.118; S -0.005; F 0.103; C -0.037; R 0.123; L 0.114; I 0.097; Y 0.063; M 0.111; N -0.012; P -0.235; T -0.042; W -0.079
E65: Q -0.016; I -0.573; Y -0.212; T -0.082; V -0.584; R 0.093; P -0.386; K 0.118; H -0.051; A -0.038; D -0.081; M -0.336; S 0.003; L -0.417; G -0.079; F -0.737; C -0.348; W -0.388
L64: G -0.44; F -1.15; Y -0.713; R -0.517; W -0.67; N -0.423; M -0.218; C -0.209; A -0.473; P -0.454; D -0.492; E -0.433; S -0.475; I -0.584; Q -0.448; V -0.5; K -0.472
K56: P -0.997; F -0.476; V -0.32; I -0.127; R -0.042; L -0.36; H -0.743; N -0.405; Y -0.254; E -0.504; G -0.599; Q -0.291; M -0.35; W -0.825
A62: M -0.226; R -0.121; C -0.223; F -0.787; G -0.302; L -0.68; V -0.403; I -0.384; T -0.381; S -0.112; H -0.242; Q -0.086; N 0.035; Y -0.788; E -0.353; P -0.56; K 0.023; D -0.185

Variants of: B2
Test: as above
Conditions: Homo sapiens

Abundance fitness, by site and new letter:
L1: R -0.741; N 0.262; K -0.269; G -0.539; C -0.284; W -0.352; T -0.542; F 0.197; E -0.14; S -0.198; A -0.124; M 0.022; I -0.084
G6: R -0.488; P -0.799; N 0.069; Y -0.671; C -0.466; M -0.655; V -1.42; K -0.751; E -0.866; D -0.046; L -0.625; S -0.559; F -0.985; W -1.02; A -0.485
H3: P -0.602; A -0.14; G -0.157; C -0.148; W -0.301; N -0.27; L -0.364; Y -0.489; E -0.114; D -0.528; S 0.147; T -0.017; F -0.216; I -0.423; K -0.133; Q -0.116; M -0.153; R -0.185
V4: R -0.765; G -0.599; L -0.292; Q -0.546; M -0.078; S -0.259; N -0.15; P -0.733; D -0.458; E -0.374; F -0.362; I -0.054; Y -0.553; W -0.687; K -0.646; T -0.209; A 0.034; C -0.056
K9: C -0.246; G -0.215; D -0.05; A 0.077; E 0.007; H -0.341; F -0.281
L7: W -0.949; Y -1.01; E -0.298; S -0.345; D -0.316; R -0.608; Q -0.309; V -0.103; T -0.721; I -0.477; F -0.734; N -0.434; H -0.54; A -0.298; K -0.365; P -0.231; C -0.149
L5: K -0.444; R -0.889; E -0.14; G -0.713; N 0.123; S -0.267; V -0.906; H 0.038; Q 0.084; Y -0.606; M -0.32; P -0.221; T -0.368
D8: W -0.648; Y -0.421; T -0.309; M -0.355; R -0.44; G -0.459; F -0.533; Q -0.019; H -0.42; C -0.497; P 0.108; I -0.807; A -0.258; K -0.516; N -0.277; V -0.648; S -0.378
Y2: D -0.18; V -0.873; M -0.422; T -0.357; Q -0.358; C -0.686; K -0.692; L -0.653; R -0.922; F -0.394; H -0.492; G -0.28; S -0.516; I -0.809; A -0.496; E -0.098; N -0.011; W -0.534
